{"source": "patent US20200087400A1", "about": "(EUREKA THERAPEUTICS, published 2020)", "binders": {"B1": {"name": "PSA146/HLA-A*02:01-specific scFv phage clone #8 (scFv, V domains shown)", "VH": "QVQLQQWGAGLLKPSETLSLTCAVKGGSFSDYYWSWIRQPPGKGLEWIGEINHSGGTNYNPSLKSRVTISVDTSKNQFSLKLLSVTAADTAVYYCARYNEYGSGYDKWGQGTLVTVSS", "VL": "QSVLTQPPSVSAAPGQKVTISCSGSSYNIGNNYVSWYQQLPGTAPKLLIYDNNKRPSGIPDRFSGSKSGTSATLGITGLQTGDEAEYYCGTWESSLSAYVFGTGTKVTVLG"}}, "key": {"[1]": {"target": "T1, PSA 146-154 peptide/HLA-A*02:01 complex on the cell surface (human)", "T1 construct": "also called PSA146/HLA-A*02:01; PSA146-loaded T2 cells", "experiment": "FACS; scFv phage on PSA146-loaded live T2 cells", "description": "(§1) Individual phage clones from enriched phage display panning pools against PSA146/HLA-A*02:01 complex were incubated in the coated plates. Binding of the phage clones was detected by HRP-conjugated anti-M13 antibodies and developed using HRP substrate. The absorbance was read at 450 nm. […] Then, unique antibody clones were identified through DNA sequencing of ELISA-positive clones. […] T2 cells loaded with different peptides and β2M were first stained with purified scFv phage clones, followed by staining with a mouse anti-M13 mAb, and finally R-PE conjugated horse anti-mouse IgG from Vector Labs. Each step of the staining was performed for between 30-60 minutes on ice and the cells were washed twice between stainings. All 16 clones recognized PSA146-loaded T2 cells specifically. FIG. 3 provides examples of PSA146/HLA-A*02:01 specific phage clone binding to peptide-loaded T2 cells through FACS."}, "[2]": {"target": "T2, control peptide A2E-8/HLA-A*02:01 complex on T2 cells (member of the P19 mixture) (human)", "T2 construct": "Loaded on T2 cells as part of the mixture of 19 control peptides", "experiment": "FACS; scFv phage on T2 cells loaded with the P19 mixture", "description": "as §1"}, "[3]": {"target": "T3, control peptide A2E-15/HLA-A*02:01 complex on T2 cells (member of the P19 mixture) (human)", "T3 construct": "Loaded on T2 cells as part of the mixture of 19 control peptides", "experiment": "FACS; scFv phage on T2 cells loaded with the P19 mixture", "description": "as §1"}, "[4]": {"target": "T4, control peptide A2E-23/HLA-A*02:01 complex on T2 cells (member of the P19 mixture) (human)", "T4 construct": "Loaded on T2 cells as part of the mixture of 19 control peptides", "experiment": "FACS; scFv phage on T2 cells loaded with the P19 mixture", "description": "as §1"}, "[5]": {"target": "T5, control peptide A2E-5/HLA-A*02:01 complex on T2 cells (member of the P19 mixture) (human)", "T5 construct": "Loaded on T2 cells as part of the mixture of 19 control peptides", "experiment": "FACS; scFv phage on T2 cells loaded with the P19 mixture", "description": "as §1"}, "[6]": {"target": "T6, control peptide A2E-19/HLA-A*02:01 complex on T2 cells (member of the P19 mixture) (human)", "T6 construct": "Loaded on T2 cells as part of the mixture of 19 control peptides", "experiment": "FACS; scFv phage on T2 cells loaded with the P19 mixture", "description": "as §1"}, "[7]": {"target": "T7, control peptide A2E-4/HLA-A*02:01 complex on T2 cells (member of the P19 mixture) (human)", "T7 construct": "Loaded on T2 cells as part of the mixture of 19 control peptides", "experiment": "FACS; scFv phage on T2 cells loaded with the P19 mixture", "description": "as §1"}, "[8]": {"target": "T8, control peptide A2E-7/HLA-A*02:01 complex on T2 cells (member of the P19 mixture) (human)", "T8 construct": "Loaded on T2 cells as part of the mixture of 19 control peptides", "experiment": "FACS; scFv phage on T2 cells loaded with the P19 mixture", "description": "as §1"}, "[9]": {"target": "T9, control peptide A2E-17/HLA-A*02:01 complex on T2 cells (member of the P19 mixture) (human)", "T9 construct": "Loaded on T2 cells as part of the mixture of 19 control peptides", "experiment": "FACS; scFv phage on T2 cells loaded with the P19 mixture", "description": "as §1"}, "[10]": {"target": "T10, control peptide A2E-11/HLA-A*02:01 complex on T2 cells (member of the P19 mixture) (human)", "T10 construct": "Loaded on T2 cells as part of the mixture of 19 control peptides", "experiment": "FACS; scFv phage on T2 cells loaded with the P19 mixture", "description": "as §1"}, "[11]": {"target": "T11, control peptide A2E-13/HLA-A*02:01 complex on T2 cells (member of the P19 mixture) (human)", "T11 construct": "Loaded on T2 cells as part of the mixture of 19 control peptides", "experiment": "FACS; scFv phage on T2 cells loaded with the P19 mixture", "description": "as §1"}, "[12]": {"target": "T12, control peptide A2E-16/HLA-A*02:01 complex on T2 cells (member of the P19 mixture) (human)", "T12 construct": "Loaded on T2 cells as part of the mixture of 19 control peptides", "experiment": "FACS; scFv phage on T2 cells loaded with the P19 mixture", "description": "as §1"}, "[13]": {"target": "T13, control peptide A2E-21/HLA-A*02:01 complex on T2 cells (member of the P19 mixture) (human)", "T13 construct": "Loaded on T2 cells as part of the mixture of 19 control peptides", "experiment": "FACS; scFv phage on T2 cells loaded with the P19 mixture", "description": "as §1"}, "[14]": {"target": "T14, control peptide A2E-2/HLA-A*02:01 complex on T2 cells (member of the P19 mixture) (human)", "T14 construct": "Loaded on T2 cells as part of the mixture of 19 control peptides", "experiment": "FACS; scFv phage on T2 cells loaded with the P19 mixture", "description": "as §1"}, "[15]": {"target": "T15, control peptide A2E-3/HLA-A*02:01 complex on T2 cells (member of the P19 mixture) (human)", "T15 construct": "Loaded on T2 cells as part of the mixture of 19 control peptides", "experiment": "FACS; scFv phage on T2 cells loaded with the P19 mixture", "description": "as §1"}, "[16]": {"target": "T16, control peptide A2E-1/HLA-A*02:01 complex on T2 cells (member of the P19 mixture) (human)", "T16 construct": "Loaded on T2 cells as part of the mixture of 19 control peptides", "experiment": "FACS; scFv phage on T2 cells loaded with the P19 mixture", "description": "as §1"}, "[17]": {"target": "T17, control peptide A2E-6/HLA-A*02:01 complex on T2 cells (member of the P19 mixture) (human)", "T17 construct": "Loaded on T2 cells as part of the mixture of 19 control peptides", "experiment": "FACS; scFv phage on T2 cells loaded with the P19 mixture", "description": "as §1"}, "[18]": {"target": "T18, control peptide A2E-10/HLA-A*02:01 complex on T2 cells (member of the P19 mixture) (human)", "T18 construct": "Loaded on T2 cells as part of the mixture of 19 control peptides", "experiment": "FACS; scFv phage on T2 cells loaded with the P19 mixture", "description": "as §1"}, "[19]": {"target": "T19, control peptide A2E-14/HLA-A*02:01 complex on T2 cells (member of the P19 mixture) (human)", "T19 construct": "Loaded on T2 cells as part of the mixture of 19 control peptides", "experiment": "FACS; scFv phage on T2 cells loaded with the P19 mixture", "description": "as §1"}, "[20]": {"target": "T20, control peptide A2E-9/HLA-A*02:01 complex on T2 cells (member of the P19 mixture) (human)", "T20 construct": "Loaded on T2 cells as part of the mixture of 19 control peptides", "experiment": "FACS; scFv phage on T2 cells loaded with the P19 mixture", "description": "as §1"}, "[21]": {"target": "T21, HLA-A*02:01 on T2 cells with no peptide loaded (human)", "T21 construct": "TAP-deficient T2 cells, no peptide loaded from outside; also called T2 cells without peptide loading", "experiment": "FACS; scFv phage on T2 cells without peptide", "description": "as §1"}}, "data": [{"binder": "B1", "values": [{"measurement": "binding result", "setting": "[1]", "result": "binds"}, {"measurement": "binding result", "setting": "[2]", "result": "no binding"}, {"measurement": "binding result", "setting": "[3]", "result": "no binding"}, {"measurement": "binding result", "setting": "[4]", "result": "no binding"}, {"measurement": "binding result", "setting": "[5]", "result": "no binding"}, {"measurement": "binding result", "setting": "[6]", "result": "no binding"}, {"measurement": "binding result", "setting": "[7]", "result": "no binding"}, {"measurement": "binding result", "setting": "[8]", "result": "no binding"}, {"measurement": "binding result", "setting": "[9]", "result": "no binding"}, {"measurement": "binding result", "setting": "[10]", "result": "no binding"}, {"measurement": "binding result", "setting": "[11]", "result": "no binding"}, {"measurement": "binding result", "setting": "[12]", "result": "no binding"}, {"measurement": "binding result", "setting": "[13]", "result": "no binding"}, {"measurement": "binding result", "setting": "[14]", "result": "no binding"}, {"measurement": "binding result", "setting": "[15]", "result": "no binding"}, {"measurement": "binding result", "setting": "[16]", "result": "no binding"}, {"measurement": "binding result", "setting": "[17]", "result": "no binding"}, {"measurement": "binding result", "setting": "[18]", "result": "no binding"}, {"measurement": "binding result", "setting": "[19]", "result": "no binding"}, {"measurement": "binding result", "setting": "[20]", "result": "no binding"}, {"measurement": "binding result", "setting": "[21]", "result": "no binding"}]}]}
